Data published in the supplement of paper PMC9112550, “Optimization of the antimicrobial peptide Bac7 by deep mutational scanning” (BMC Biology, 2022).
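Note: peptides expressed intracellularly from a pBAD plasmid library in pooled LB shake-flask culture, induced with 0.3% L-arabinose, DNA abundance read by NGS, three biological replicates, DESeq2 with apeglm shrinkage.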

These sequences were tested on Escherichia coli TOP10 (assay: shrunken log2 fold change of peptide-encoding DNA abundance (4.5 h post-induction vs induction); higher = less antimicrobial activity (less host growth inhibition)). Conditions: time post-induction: 4.5 h; library: site-saturation at positions 5, 18, 19, 20.
With RRIRSRPPRLPRPRPRPASDPRP the “shrunken log2 fold change” value was 0.407.
RRIRHRPPRLPRPRPRPPSVPRP was tested, and the “shrunken log2 fold change” value was 0.241.
RRIRGRPPRLPRPRPRPWSFPRP was tested, and the “shrunken log2 fold change” value was -0.113.
In the case of RRIRGRPPRLPRPRPRPFVRPRP, the “shrunken log2 fold change” value is reported as 0.0432.
RRIRCRPPRLPRPRPRPNESPRP was tested, and the “shrunken log2 fold change” value was -0.00497.
With RRIRMRPPRLPRPRPRPSVFPRP the “shrunken log2 fold change” value was -0.0403.
With RRIRDRPPRLPRPRPRPILDPRP the “shrunken log2 fold change” value was 0.0609.
For RRIRHRPPRLPRPRPRPTFMPRP, the “shrunken log2 fold change” value was -0.102.
For RRIRGRPPRLPRPRPRPALVPRP, the “shrunken log2 fold change” value was 1.02.
In the case of RRIRSRPPRLPRPRPRPGYHPRP, the “shrunken log2 fold change” value is reported as -0.512.
RRIRSRPPRLPRPRPRPIQIPRP was tested, and the “shrunken log2 fold change” value was -0.0243.
For RRIRHRPPRLPRPRPRPCGPPRP, the “shrunken log2 fold change” value was -0.084.
With RRIRSRPPRLPRPRPRPMGYPRP the “shrunken log2 fold change” value was -0.0075.
With RRIRCRPPRLPRPRPRPIWRPRP the “shrunken log2 fold change” value was 0.285.
With RRIRERPPRLPRPRPRPYRPPRP the “shrunken log2 fold change” value was -0.41.
For RRIRARPPRLPRPRPRPWFPPRP, the “shrunken log2 fold change” value was -0.0966.
With RRIRHRPPRLPRPRPRPNTIPRP the “shrunken log2 fold change” value was -0.903.
For RRIRTRPPRLPRPRPRPSVMPRP, the “shrunken log2 fold change” value was -0.372.
For RRIRSRPPRLPRPRPRPQPEPRP, the “shrunken log2 fold change” value was -0.279.
In the case of RRIRPRPPRLPRPRPRPVISPRP, the “shrunken log2 fold change” value is reported as -0.00579.
For RRIRDRPPRLPRPRPRPQKHPRP, the “shrunken log2 fold change” value was -0.108.
For RRIRMRPPRLPRPRPRPMGVPRP, the “shrunken log2 fold change” value was 0.06.
RRIRHRPPRLPRPRPRPQTWPRP was tested, and the “shrunken log2 fold change” value was -0.332.
For RRIRTRPPRLPRPRPRPWYSPRP, the “shrunken log2 fold change” value was -0.818.
For RRIRDRPPRLPRPRPRPFCWPRP, the “shrunken log2 fold change” value was 0.445.
In the case of RRIRFRPPRLPRPRPRPGISPRP, the “shrunken log2 fold change” value is reported as -0.0961.
In the case of RRIRTRPPRLPRPRPRPEVEPRP, the “shrunken log2 fold change” value is reported as 0.0992.
RRIRNRPPRLPRPRPRPCEHPRP was tested, and the “shrunken log2 fold change” value was -0.162.
For RRIRDRPPRLPRPRPRPHFWPRP, the “shrunken log2 fold change” value was -0.0278.
In the case of RRIRDRPPRLPRPRPRPWYTPRP, the “shrunken log2 fold change” value is reported as -0.0848.
With RRIRMRPPRLPRPRPRPRWQPRP the “shrunken log2 fold change” value was 0.146.
For RRIRCRPPRLPRPRPRPPWEPRP, the “shrunken log2 fold change” value was -0.0369.
In the case of RRIRQRPPRLPRPRPRPQHCPRP, the “shrunken log2 fold change” value is reported as -0.076.
In the case of RRIRMRPPRLPRPRPRPSRAPRP, the “shrunken log2 fold change” value is reported as 1.18.
For RRIRVRPPRLPRPRPRPCFAPRP, the “shrunken log2 fold change” value was 0.116.
With RRIRNRPPRLPRPRPRPGKEPRP the “shrunken log2 fold change” value was -0.311.
In the case of RRIRDRPPRLPRPRPRPMCIPRP, the “shrunken log2 fold change” value is reported as -0.121.
For RRIRKRPPRLPRPRPRPPEEPRP, the “shrunken log2 fold change” value was 1.79.
In the case of RRIRFRPPRLPRPRPRPQSYPRP, the “shrunken log2 fold change” value is reported as -0.111.
RRIRQRPPRLPRPRPRPMLIPRP was tested, and the “shrunken log2 fold change” value was -0.221.
RRIRTRPPRLPRPRPRPGVQPRP was tested, and the “shrunken log2 fold change” value was -0.133.
RRIRARPPRLPRPRPRPMHEPRP was tested, and the “shrunken log2 fold change” value was 0.671.
For RRIRCRPPRLPRPRPRPVHWPRP, the “shrunken log2 fold change” value was -0.21.
RRIRSRPPRLPRPRPRPSTDPRP was tested, and the “shrunken log2 fold change” value was -0.168.
With RRIRCRPPRLPRPRPRPSSCPRP the “shrunken log2 fold change” value was -0.211.
With RRIRVRPPRLPRPRPRPATNPRP the “shrunken log2 fold change” value was -0.301.
With RRIRCRPPRLPRPRPRPAEFPRP the “shrunken log2 fold change” value was -0.0616.
RRIRYRPPRLPRPRPRPFYQPRP was tested, and the “shrunken log2 fold change” value was -0.224.
RRIRSRPPRLPRPRPRPGPMPRP was tested, and the “shrunken log2 fold change” value was 0.34.
For RRIRWRPPRLPRPRPRPAMMPRP, the “shrunken log2 fold change” value was 0.306.
For RRIRDRPPRLPRPRPRPVRAPRP, the “shrunken log2 fold change” value was 0.325.
In the case of RRIRYRPPRLPRPRPRPCPSPRP, the “shrunken log2 fold change” value is reported as 0.109.
With RRIRQRPPRLPRPRPRPRQDPRP the “shrunken log2 fold change” value was 0.243.
In the case of RRIRTRPPRLPRPRPRPSIDPRP, the “shrunken log2 fold change” value is reported as -0.397.
With RRIRSRPPRLPRPRPRPGDYPRP the “shrunken log2 fold change” value was -0.0123.
